Patent US20120039802A1 (published 2012)

B1: 118-C07 peptide-displaying phage (SEQ ID NO: 460) (peptide)
peptide: AQFPLEFDVPNFSYHWLVSFNP
B2: 489-A04 peptide-displaying phage (SEQ ID NO: 015) (peptide)
peptide: AGLYLCDLSIMYCFFQGT
B3: 92-B05 peptide-displaying phage (SEQ ID NO: 465) (peptide)
peptide: AQFDRYWHFAWMDVSFSSGQSG
B4: 96-H12 peptide-displaying phage (SEQ ID NO: 452) (peptide)
peptide: AQRPEAHYKLAMSYPIIPRTKT
B5: 94-F07 peptide-displaying phage (SEQ ID NO: 458) (peptide)
peptide: AQPYYELQDADMLLVVALLSTG
B6: 531-E11 peptide-displaying phage (SEQ ID NO: 404) (peptide)
peptide: GDASMCYDGLALRWDQCWPHDP
B7: 119-F06 peptide-displaying phage (SEQ ID NO: 455) (peptide)
peptide: AQMYQTPDGVIGKFVDWMFN
B8: 465-A06 peptide-displaying phage (SEQ ID NO: 002) (peptide)
peptide: GSYYDCREFQCNKPAP
B9: 02-B08 peptide-displaying phage (SEQ ID NO: 467) (peptide)
peptide: AQHSVQRQMDVWMPVQFMAGFT
B10: 95-A11 peptide-displaying phage (SEQ ID NO: 456) (peptide)
peptide: AQVGSPMLPSWFSFEANWSS
B11: 76-D09 peptide-displaying phage (SEQ ID NO: 463) (peptide)
peptide: AQSPYIFPIDDSGRQIFVIQWG
B12: 104-C09 peptide-displaying phage (SEQ ID NO: 461) (peptide)
peptide: AQDLKPWTAGWEPPWLWTDRGP
B13: 484-D08 peptide-displaying phage (SEQ ID NO: 016) (peptide)
peptide: AGWWSCQWELNVCIWQGT
B14: 93-C08 peptide-displaying phage (SEQ ID NO: 464) (peptide)
peptide: AQVPDWLSAVVIEKLIEYGMMV
B15: 525-A07 peptide-displaying phage (SEQ ID NO: 449) (peptide)
peptide: AQQASRFTFTDGDSYWWFEDF
B16: 117-F08 peptide-displaying phage (SEQ ID NO: 462) (peptide)
peptide: AQHQYGQMMVLHIQYDMGEFIP
B17: 94-E08 peptide-displaying phage (SEQ ID NO: 454) (peptide)
peptide: AQYDTWVFQFIHEVPGELVAMQ
notes: also called linear isolate 94-E08
B18: 103-G08 peptide-displaying phage (SEQ ID NO: 459) (peptide)
peptide: AQVGTAEAIMFSDVEDTGVHKF
B19: 116-H02 peptide-displaying phage (SEQ ID NO: 466) (peptide)
peptide: AQKETWEFFDIVYGSGWKFNSP
B20: 117-F03 peptide-displaying phage (SEQ ID NO: 468) (peptide)
peptide: AQEWQTWTWNMIEVISENKTP
B21: 547-C09 peptide-displaying phage (SEQ ID NO: 401) (peptide)
peptide: GDPDECQLNRETFEVWCPWHDP
B22: 528-F05 peptide-displaying phage (SEQ ID NO: 450) (peptide)
peptide: AQIQGIQKTEQGEFYWFNWFPA
B23: 524-E09 peptide-displaying phage (SEQ ID NO: 451) (peptide)
peptide: AQREVEEPYWYLDFLSSWRMHE
B24: 545-F04 peptide-displaying phage (SEQ ID NO: 402) (peptide)
peptide: GDHRKCEISAKTHEVTCYDNDP
B25: 94-H04 peptide-displaying phage (SEQ ID NO: 457) (peptide)
peptide: AQNAVVPPPMLWSIYWDYGREG
B26: 552-F06 peptide-displaying phage (SEQ ID NO: 403) (peptide)
peptide: GDHLTCEFRDDGWKEHCWWSDP
B27: 118-A08 peptide-displaying phage (SEQ ID NO: 453) (peptide)
peptide: AQRWSSPGMSQSFVLEWKWNDN

What follows are binders tested against T1, human cMet expressed on 3T3 cells (human, UniProt P08581 25-1390) (assay: whole cell phage ELISA, 3T3 human cMet vs 3T3).
T1 construct: whole, on cells; cells fixed with glutaraldehyde; also called cell surface-expressed human cMet; 3T3 cells that over-express human cMet
T1 sequence (P08581 25-1390): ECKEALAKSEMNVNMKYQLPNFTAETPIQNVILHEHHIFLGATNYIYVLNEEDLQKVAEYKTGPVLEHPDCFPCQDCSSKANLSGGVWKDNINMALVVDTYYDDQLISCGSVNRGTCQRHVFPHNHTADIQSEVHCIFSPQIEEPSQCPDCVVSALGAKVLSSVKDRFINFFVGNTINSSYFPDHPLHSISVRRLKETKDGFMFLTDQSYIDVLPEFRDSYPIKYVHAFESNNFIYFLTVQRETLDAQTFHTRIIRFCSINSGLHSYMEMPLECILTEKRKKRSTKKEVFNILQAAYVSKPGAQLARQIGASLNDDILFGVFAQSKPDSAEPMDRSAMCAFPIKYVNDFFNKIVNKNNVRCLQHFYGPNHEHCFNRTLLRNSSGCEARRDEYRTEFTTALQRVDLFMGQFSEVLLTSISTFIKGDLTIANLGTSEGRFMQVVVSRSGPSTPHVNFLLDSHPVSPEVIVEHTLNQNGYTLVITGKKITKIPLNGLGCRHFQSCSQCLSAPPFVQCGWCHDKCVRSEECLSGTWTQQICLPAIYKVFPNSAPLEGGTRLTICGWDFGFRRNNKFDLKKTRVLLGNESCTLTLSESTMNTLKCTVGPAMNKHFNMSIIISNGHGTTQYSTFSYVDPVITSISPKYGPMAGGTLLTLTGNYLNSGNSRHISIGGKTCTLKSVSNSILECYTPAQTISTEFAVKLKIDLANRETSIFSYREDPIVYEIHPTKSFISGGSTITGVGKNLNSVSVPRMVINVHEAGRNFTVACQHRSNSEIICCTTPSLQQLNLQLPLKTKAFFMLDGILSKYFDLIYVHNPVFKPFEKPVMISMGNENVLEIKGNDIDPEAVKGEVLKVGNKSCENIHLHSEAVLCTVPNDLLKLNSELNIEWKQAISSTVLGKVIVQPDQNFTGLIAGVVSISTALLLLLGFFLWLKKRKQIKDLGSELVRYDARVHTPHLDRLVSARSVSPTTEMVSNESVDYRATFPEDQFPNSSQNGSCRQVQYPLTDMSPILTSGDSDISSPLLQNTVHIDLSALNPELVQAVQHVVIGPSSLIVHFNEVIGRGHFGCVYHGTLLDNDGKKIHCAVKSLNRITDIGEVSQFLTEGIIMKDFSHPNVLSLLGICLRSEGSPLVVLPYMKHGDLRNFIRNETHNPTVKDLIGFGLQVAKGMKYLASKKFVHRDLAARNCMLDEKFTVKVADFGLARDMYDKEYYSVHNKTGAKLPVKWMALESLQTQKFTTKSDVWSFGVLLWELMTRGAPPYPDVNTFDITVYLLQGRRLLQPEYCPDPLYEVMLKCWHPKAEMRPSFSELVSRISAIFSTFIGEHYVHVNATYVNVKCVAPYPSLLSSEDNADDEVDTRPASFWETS
In short: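 Bound phage was detected with an HRP-conjugated anti-M13 antibody after PBST washes. The cells were cMet-over-expressing 3T3, read against plain 3T3.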
B1 was tested, and the “WC ELISA (fold over background)” value was 1.27 fold. With B2 the “WC ELISA (fold over background)” value was 1.33 fold. B3 was tested, and the “WC ELISA (fold over background)” value was 1.2 fold. B4 was tested, and the “WC ELISA (fold over background)” value was 1.37 fold. B5 was tested, and the “WC ELISA (fold over background)” value was 1.2 fold. In the case of B6, the “WC ELISA (fold over background)” value is reported as 1.3 fold. With B7 the “WC ELISA (fold over background)” value was 1.33 fold. With B8 the “WC ELISA (fold over background)” value was 1.33 fold. For B9, the “WC ELISA (fold over background)” value was 1.3 fold. In the case of B10, the “WC ELISA (fold over background)” value is reported as 1.3 fold. With B11 the “WC ELISA (fold over background)” value was 1.23 fold. B12 was tested, and the “WC ELISA (fold over background)” value was 1.3 fold. B13 was tested, and the “WC ELISA (fold over background)” value was 1.33 fold. In the case of B14, the “WC ELISA (fold over background)” value is reported as 1.37 fold. With B15 the “WC ELISA (fold over background)” value was 1.17 fold. For B16, the “WC ELISA (fold over background)” value was 1.27 fold. In the case of B17, the “WC ELISA (fold over background)” value is reported as 1.23 fold. For B18, the “WC ELISA (fold over background)” value was 1.33 fold. B19 was tested, and the “WC ELISA (fold over background)” value was 1.23 fold. B20 was tested, and the “WC ELISA (fold over background)” value was 1.4 fold. With B21 the “WC ELISA (fold over background)” value was 1.23 fold. With B22 the “WC ELISA (fold over background)” value was 1.1 fold. With B23 the “WC ELISA (fold over background)” value was 1.33 fold. In the case of B24, the “WC ELISA (fold over background)” value is reported as 1.17 fold. For B25, the “WC ELISA (fold over background)” value was 1.37 fold. B26 was tested, and the “WC ELISA (fold over background)” value was 1.23 fold. B27 was tested, and the “WC ELISA (fold over background)” value was 1.3 fold.

What follows are binders tested against T2, cMet-Fc fusion protein (extracellular domain of the cMet receptor expressed as an Fc-fusion protein) (human, UniProt P08581 25-932) (assay: phage ELISA on cMet-Fc, competitor HGF 100 ng/mL).
T2 construct: extracellular domain; also called soluble cMet-Fc-fusion protein; soluble cMet receptor; not shown: Fc part
T2 sequence (P08581 25-932): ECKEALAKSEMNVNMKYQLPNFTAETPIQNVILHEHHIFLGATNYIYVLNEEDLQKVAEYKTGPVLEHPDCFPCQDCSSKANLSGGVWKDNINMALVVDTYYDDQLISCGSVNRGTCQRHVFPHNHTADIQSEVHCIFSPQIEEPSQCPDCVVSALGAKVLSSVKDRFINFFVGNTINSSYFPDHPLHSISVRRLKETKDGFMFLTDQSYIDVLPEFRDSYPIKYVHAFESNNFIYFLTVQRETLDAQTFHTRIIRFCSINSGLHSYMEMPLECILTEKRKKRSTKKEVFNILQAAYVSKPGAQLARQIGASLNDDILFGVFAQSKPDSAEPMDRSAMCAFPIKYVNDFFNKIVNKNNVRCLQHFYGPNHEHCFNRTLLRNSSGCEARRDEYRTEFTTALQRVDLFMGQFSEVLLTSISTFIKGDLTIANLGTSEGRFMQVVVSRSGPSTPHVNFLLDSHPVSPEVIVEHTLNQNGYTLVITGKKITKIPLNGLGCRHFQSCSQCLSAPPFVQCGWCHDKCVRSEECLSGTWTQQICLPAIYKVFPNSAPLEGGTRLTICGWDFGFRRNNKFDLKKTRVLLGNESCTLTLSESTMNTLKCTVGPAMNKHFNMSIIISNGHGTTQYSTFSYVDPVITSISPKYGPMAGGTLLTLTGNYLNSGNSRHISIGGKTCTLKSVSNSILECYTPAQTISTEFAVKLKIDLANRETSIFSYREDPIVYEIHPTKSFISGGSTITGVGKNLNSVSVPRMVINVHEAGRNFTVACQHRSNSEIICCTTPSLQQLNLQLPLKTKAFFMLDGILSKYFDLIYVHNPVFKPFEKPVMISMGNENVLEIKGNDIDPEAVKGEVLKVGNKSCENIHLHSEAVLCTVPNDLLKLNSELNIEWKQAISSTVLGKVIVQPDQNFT
In short: (§1)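 Plates coated with 0.5 μg/mL cMet-Fc, with TRAIL-Fc as background, then blocked with 3% BSA. Bound phage detected with HRP anti-M13 antibody.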
With B1 the “% of binding in the absence of HGF” value was 100%. With B2 the “% of binding in the absence of HGF” value was 30%. B3 was tested, and the “% of binding in the absence of HGF” value was 94%. In the case of B4, the “% of binding in the absence of HGF” value is reported as 88%. For B5, the “% of binding in the absence of HGF” value was 106%. In the case of B6, the “% of binding in the absence of HGF” value is reported as 61%. With B7 the “% of binding in the absence of HGF” value was 4%. With B8 the “% of binding in the absence of HGF” value was 56%. For B9, the “% of binding in the absence of HGF” value was 84%. With B10 the “% of binding in the absence of HGF” value was 109%. B11 was tested, and the “% of binding in the absence of HGF” value was 79%. In the case of B12, the “% of binding in the absence of HGF” value is reported as 64%. In the case of B13, the “% of binding in the absence of HGF” value is reported as 105%. For B14, the “% of binding in the absence of HGF” value was 101%. In the case of B15, the “% of binding in the absence of HGF” value is reported as 93%. With B16 the “% of binding in the absence of HGF” value was 102%. For B17, the “% of binding in the absence of HGF” value was 102%. B18 was tested, and the “% of binding in the absence of HGF” value was 140%. For B19, the “% of binding in the absence of HGF” value was 84%. B20 was tested, and the “% of binding in the absence of HGF” value was 104%. With B21 the “% of binding in the absence of HGF” value was 50%. In the case of B22, the “% of binding in the absence of HGF” value is reported as 84%. For B23, the “% of binding in the absence of HGF” value was 100%. B24 was tested, and the “% of binding in the absence of HGF” value was 143%. For B25, the “% of binding in the absence of HGF” value was 150%. B26 was tested, and the “% of binding in the absence of HGF” value was 82%. For B27, the “% of binding in the absence of HGF” value was 85%.

These binders were tested against T2, cMet-Fc fusion protein (extracellular …) (assay: phage ELISA, cMet-Fc vs TRAIL-Fc).
In short: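 Specificity check: phage displaying peptides incubated 2 h at room temperature on wells coated with 0.5 μg/mL cMet-Fc versus TRAIL-Fc, after blocking with 3% BSA/PBST. HRP-anti-M13 antibody detected binding phage.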
With B1 the “Protein ELISA (fold over background)” value was 5.6 fold. For B2, the “Protein ELISA (fold over background)” value was 4.3 fold. In the case of B3, the “Protein ELISA (fold over background)” value is reported as 4.3 fold. In the case of B4, the “Protein ELISA (fold over background)” value is reported as 35.3 fold. B5 was tested, and the “Protein ELISA (fold over background)” value was 6.1 fold. B6 was tested, and the “Protein ELISA (fold over background)” value was 3.4 fold. B7 was tested, and the “Protein ELISA (fold over background)” value was 8 fold. B8 was tested, and the “Protein ELISA (fold over background)” value was 4.4 fold. With B9 the “Protein ELISA (fold over background)” value was 3.9 fold. With B10 the “Protein ELISA (fold over background)” value was 7 fold. With B11 the “Protein ELISA (fold over background)” value was 4.4 fold. For B12, the “Protein ELISA (fold over background)” value was 5 fold. In the case of B13, the “Protein ELISA (fold over background)” value is reported as 4.1 fold. With B14 the “Protein ELISA (fold over background)” value was 4.4 fold. With B15 the “Protein ELISA (fold over background)” value was 7 fold. With B16 the “Protein ELISA (fold over background)” value was 4.5 fold. B17 was tested, and the “Protein ELISA (fold over background)” value was 8.9 fold. With B18 the “Protein ELISA (fold over background)” value was 5.7 fold. With B19 the “Protein ELISA (fold over background)” value was 4 fold. With B20 the “Protein ELISA (fold over background)” value was 3.8 fold. In the case of B21, the “Protein ELISA (fold over background)” value is reported as 4.3 fold. In the case of B22, the “Protein ELISA (fold over background)” value is reported as 4.3 fold. For B23, the “Protein ELISA (fold over background)” value was 8.2 fold. For B24, the “Protein ELISA (fold over background)” value was 5.2 fold. B25 was tested, and the “Protein ELISA (fold over background)” value was 7 fold. For B26, the “Protein ELISA (fold over background)” value was 11.1 fold. B27 was tested, and the “Protein ELISA (fold over background)” value was 11.3 fold.

What follows are binders tested against T2, cMet-Fc fusion protein (extracellular …) (assay: phage ELISA on cMet-Fc, competitor HGF 500 ng/mL).
In short: as §1
In the case of B1, the “% of binding in the absence of HGF” value is reported as 84%. With B2 the “% of binding in the absence of HGF” value was 13%. With B3 the “% of binding in the absence of HGF” value was 94%. In the case of B4, the “% of binding in the absence of HGF” value is reported as 64%. In the case of B5, the “% of binding in the absence of HGF” value is reported as 104%. B6 was tested, and the “% of binding in the absence of HGF” value was 33%. In the case of B7, the “% of binding in the absence of HGF” value is reported as 27%. For B8, the “% of binding in the absence of HGF” value was 32%. With B9 the “% of binding in the absence of HGF” value was 96%. For B10, the “% of binding in the absence of HGF” value was 108%. With B11 the “% of binding in the absence of HGF” value was 87%. B12 was tested, and the “% of binding in the absence of HGF” value was 50%. For B13, the “% of binding in the absence of HGF” value was 90%. For B14, the “% of binding in the absence of HGF” value was 96%. With B15 the “% of binding in the absence of HGF” value was 88%. With B16 the “% of binding in the absence of HGF” value was 270%. For B17, the “% of binding in the absence of HGF” value was 74%. With B18 the “% of binding in the absence of HGF” value was 95%. In the case of B19, the “% of binding in the absence of HGF” value is reported as 72%. With B20 the “% of binding in the absence of HGF” value was 93%. With B21 the “% of binding in the absence of HGF” value was 32%. B22 was tested, and the “% of binding in the absence of HGF” value was 81%. B23 was tested, and the “% of binding in the absence of HGF” value was 93%. For B24, the “% of binding in the absence of HGF” value was 114%. In the case of B25, the “% of binding in the absence of HGF” value is reported as 101%. B26 was tested, and the “% of binding in the absence of HGF” value was 32%. B27 was tested, and the “% of binding in the absence of HGF” value was 74%.
